According to patent publication EP4631972A1, “SITE-SPECIFIC COUPLED PEGYLATED INTERLEUKIN-2 MUTANT WITH RECEPTOR AFFINITY PREFERENCE AND USE THEREOF” (priority 2022, dated 2024):

Tests used:
[1] = Pharmacokinetic study in cynomolgus monkeys; conditions: cynomolgus monkey
Method: Blood was collected before and after administration (4h, 8h, 24h, 48h, 72h, 120h, 168h, 240h, 336h) in the first cycle and after administration (8h, 24h, 48h, 72h, 120h, 168h, 240h) in the second cycle to detect plasma drug concentration.

Treg cells = assay: P-STAT5 activation in Treg cells of human PBMCs (flow cytometry); assay type: cell-based; conditions: P-STAT5 MFI in CD3+/CD4+/CD25+ cells of human PBMCs, 30 min stimulation
Method: In the example, the activation effect of each mutant prepared in Example 6 on P-STAT5 in different cell subsets (Tregs, CD8+T cells, NK cells) from human PBMCs (Miaoshun Biotechnology) was detected.
Human PBMC cells were thawed and resuspended to 1.5×10^6 cells/ml in RPMI1640 medium containing 10% FBS. 100 µl was added to each well of a V-bottom 96-well culture plate. Each IL-2 mutant prepared in Example 6 was diluted 10-fold in series: 1000 nM was used as the working concentration for the first well, and then 100 µl/well of each serial dilution was added to each cultured cell, stimulated at 37°C for 30 min, and the reaction was terminated on ice. The cells were treated with a commercial fixative and permeabilization agent (BD biosciences 558049 & 558050), and stained with antibodies against CD3, CD4, CD25, and CD8 according to conventional methods. P-STAT5 antibody staining was also performed (Table 7) to detect the mean fluorescence intensity (MFI) of P-STAT5 in CD3+/CD4+/CD25+ (Treg cells) and CD8+/CD3+ cells ([…]) by flow cytometry.

[2] = mouse, in vivo, sc, 1 mg/kg
Method: (§1) Balb/c mice were purchased, with 4 mice in each group. Each IL-2 mutant to be tested was administered subcutaneously once at a dose of 1 mg/kg. Blood was collected from the orbit at different time points after administration, and the plasma was separated and the plasma drug concentration was detected by ELISA. The main pharmacokinetic parameters were calculated, and C-T curve was plotted.

[3] = Pharmacokinetic study in mice, single administration, plasma concentration by ELISA; conditions: 1 mg/kg s.c. single administration
Method: as §1

[4] = female, first-cycle dosing 50 µg/kg s.c.
[5] = female, second-cycle dosing 400 µg/kg s.c.
[6] = male, first-cycle dosing 50 µg/kg s.c.
[7] = male, second-cycle dosing 400 µg/kg s.c.

B1: 80K-1PEG-IL2-N88R-N77C: IL-2 mutant N88R, N77C, conjugation site 77, PEG molecular weight 80kD (conjugate)
chain: APTSSSTKKTQLQLEHLLLDLQMILNGINNYKNPKLTRMLTFKFYMPKKATELKHLQCLEEELKPLEEVLNLAQSKC(PEG 80 kDa)FHLRPRDLISRINVIVLELKGSETTFMCEYADETATIVEFLNRWITFSQSIISTLT
AUC inf [1, 4]: 186.0556 µg·h/mL | AUClast [1, 4]: 147.9248 µg·h/mL | CL [1, 4]: 0.27 | Cmax [1, 4]: 902.5692 ng/mL | MRT [1, 4]: 122.9092 h | Tmax [1, 4]: 8 h | AUC inf [1, 5]: 2286.053 µg·h/mL | AUClast [1, 5]: 1481.823 µg·h/mL | CL [1, 5]: 0.17 | Cmax [1, 5]: 8785.158 ng/mL | MRT [1, 5]: 103.1 h | Tmax [1, 5]: 8 h | AUC inf [1, 6]: 278.1948 µg·h/mL | AUClast [1, 6]: 184.7575 µg·h/mL | CL [1, 6]: 0.18 | Cmax [1, 6]: 824.4732 ng/mL | MRT [1, 6]: 142.9087 h | Tmax [1, 6]: 48 h | AUC inf [1, 7]: 2635.62 µg·h/mL | AUClast [1, 7]: 1885.448 µg·h/mL | CL [1, 7]: 0.15 | Cmax [1, 7]: 11432.93 ng/mL | MRT [1, 7]: 102.1 h | Tmax [1, 7]: 48 h | EC50 (Treg cells): 29.8 nM | T1/2 [2]: 25.23 ± 3.45 h | AUC inf [3]: 463.63062 ± 37.7282 µg·h/mL | AUClast [3]: 437.8594 ± 41.0906 µg·h/mL | CL [3]: 2.17±0.18 | Cmax [3]: 8418.72 ± 491.4 ng/mL | MRT [3]: 40.08 ± 2.1 h | Tmax [3]: 24 h | mean half-life [3]: 25.23 h | mean residence time (MRT) [3]: 40.08 h
